B1: MX1500 (antibody)
chain 1: not shown
chain 2: DIQLTQSPSSLSASVGDRVTITCRASQSISYLNWYQQKPGKSPKRWIYDTSKLASGVPSRFSGSGSGTDYTLTISSMQPEDAATYYCQQWSSNPLTFGGGTKVEIKRTVAAPSVFIFPPSDEQLKSGTASVVCLLNNFYPREAKVQWKVDNALQSGNSQESVTEQDSKDSTYSLSSTLTLSKADYEKHKVYACEVTHQGLSSPVTKSFNRGECGGGGSGGGGSGGGGSGGGGSGGGGSGGGGSGGGGSGGGGSQVQLVQSGAEVAKPGASVKVSCKASGYTFTRYTMHWVKQAPGQGLEWIGYINPSRGYTNYAQKFQGKATLTTDKSTSTAYMELSSLRSEDTAVYYCARYYDDHYSLDYWGQGTTLTVSSASTKGPSVFPLAPSSKSTSGGTAALGCLVKDYFPEPVTVSWNSGALTSGVHTFPAVLQSSGLYSLSSVVTVPSSSLGTQTYICNVNHKPSNTKVDKKVEPKSCDKTHTCPPCPAPEAAGGPSVFLFPPKPKDTLMISRTPEVTCVVVDVSHEDPEVKFNWYVDGVEVHNAKTKPREEQYNSTYRVVSVLTVLHQDWLNGKEYKCKVSNKALAAPIEKTISKAKGQPREPQVCTLPPSRDELTKNQVSLSCAVKGFYPSDIAVEWESNGQPENNYKTTPPVLDSDGSFFLVSKLTVDKSRWQQGNVFSCSVMHEALHNHYTQKSLSLSPG
B2: MX1243 (antibody)
chain 1: not shown
chain 2: DIQLTQSPSSLSASVGDRVTITCRASQSISYLNWYQQKPGKSPKRWIYDTSKLASGVPSRFSGSGSGTDYTLTISSMQPEDAATYYCQQWSSNPLTFGGGTKVEIKGGGGSGGSGSGGGGSASGSGQVQLVQSGAEVAKPGASVKVSCKASGYTFTRYTMHWVKQAPGQGLEWIGYINPSRGYTNYAQKFQGKATLTTDKSTSTAYMELSSLRSEDTAVYYCARYYDDHYSLDYWGQGTTLTVSSASGGSGDKTHTCPPCPAPEAAGGPSVFLFPPKPKDTLMISRTPEVTCVVVDVSHEDPEVKFNWYVDGVEVHNAKTKPREEQYNSTYRVVSVLTVLHQDWLNGKEYKCKVSNKALAAPIEKTISKAKGQPREPQVCTLPPSRDELTKNQVSLSCAVKGFYPSDIAVEWESNGQPENNYKTTPPVLDSDGSFFLVSKLTVDKSRWQQGNVFSCSVMHEALHNHYTQKSLSLSPG
B3: MX1507 (antibody)
heavy 1: not shown
heavy 2: QVQLVQSGAEVAKPGASVKVSCKASGYTFTRYTMHWVKQAPGQGLEWIGYINPSRGYTNYAQKFQGKATLTTDKSTSTAYMELSSLRSEDTAVYYCARYYDDHYSLDYWGQGTTLTVSSASTKGPSVFPLAPSSKSTSGGTAALGCLVKDYFPEPVTVSWNSGALTSGVHTFPAVLQSSGLYSLSSVVTVPSSSLGTQTYICNVNHKPSNTKVDKKVEPKSCDKTHTCPPCPAPEAAGGPSVFLFPPKPKDTLMISRTPEVTCVVVDVSHEDPEVKFNWYVDGVEVHNAKTKPREEQYNSTYRVVSVLTVLHQDWLNGKEYKCKVSNKALAAPIEKTISKAKGQPREPQVCTLPPSRDELTKNQVSLSCAVKGFYPSDIAVEWESNGQPENNYKTTPPVLDSDGSFFLVSKLTVDKSRWQQGNVFSCSVMHEALHNHYTQKSLSLSPG
light: DIQLTQSPSSLSASVGDRVTITCRASQSISYLNWYQQKPGKSPKRWIYDTSKLASGVPSRFSGSGSGTDYTLTISSMQPEDAATYYCQQWSSNPLTFGGGTKVEIKRTVAAPSVFIFPPSDEQLKSGTASVVCLLNNFYPREAKVQWKVDNALQSGNSQESVTEQDSKDSTYSLSSTLTLSKADYEKHKVYACEVTHQGLSSPVTKSFNRGEC
modifications: engineered C-terminal cysteine of the knob chain, joined by maleimide-thiol reaction to DSPE-PEG2000-maleimide on the LNP surface
B4: MX1506 (antibody)
heavy 1: not shown
heavy 2: QVQLVQSGAEVKKPGASVKVSCKASGYTFTSYYIHWVRQAPGQGLEWIGSIYPGNVNTNYNEKFKDRATLTVDTSISTAYMELSRLRSDDTAVYFCTRSHYGLDWNFDVWGQGTTVTVSSASTKGPSVFPLAPSSKSTSGGTAALGCLVKDYFPEPVTVSWNSGALTSGVHTFPAVLQSSGLYSLSSVVTVPSSSLGTQTYICNVNHKPSNTKVDKKVEPKSCDKTHTCPPCPAPEAAGGPSVFLFPPKPKDTLMISRTPEVTCVVVDVSHEDPEVKFNWYVDGVEVHNAKTKPREEQYNSTYRVVSVLTVLHQDWLNGKEYKCKVSNKALAAPIEKTISKAKGQPREPQVCTLPPSRDELTKNQVSLSCAVKGFYPSDIAVEWESNGQPENNYKTTPPVLDSDGSFFLVSKLTVDKSRWQQGNVFSCSVMHEALHNHYTQKSLSLSPG
light: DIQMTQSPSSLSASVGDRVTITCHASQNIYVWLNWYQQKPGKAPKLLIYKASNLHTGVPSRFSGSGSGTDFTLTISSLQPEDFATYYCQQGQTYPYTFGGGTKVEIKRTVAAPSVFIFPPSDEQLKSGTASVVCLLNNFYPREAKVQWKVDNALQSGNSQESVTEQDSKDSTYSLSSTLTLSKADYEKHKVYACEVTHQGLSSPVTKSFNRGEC
modifications: engineered C-terminal cysteine of the knob chain, joined by maleimide-thiol reaction to DSPE-PEG2000-maleimide on the LNP surface

Experiments:
[1] = target: human Cluster of Differentiation 3 protein (CD3) (human, UniProt P07766 23-207; P09693 23-182; P04234 22-171; P20963 22-164)
[2] = target: human Cluster of Differentiation 28 protein (CD28) (human, UniProt P10747 19-220)

| Binder | Kd [1] [nM] | Kd [2] [nM] |
| --- | --- | --- |
| B1 | 1050 | – |
| B2 | 6.92 | 2.55 |
| B3 | 727 | – |
| B4 | – | 1.34 |
